{
  "source": "paper PMC6286126",
  "about": "“A novel pathway of LPS uptake through syndecan-1 leading to pyroptotic cell death” (eLife, 2018)",
  "proteins": {"B1": {"name": "recombinant human SCGB3A2 (C1) (natural protein, UniProt Q96PL1 22-93, looked up)", "chain": "FLINKVPLPVDKLAPLPLDNILPFMDPLKLLLKTLGISVEHLVEGLRKCVNELGPEASEAVKKLLEALSHLV", "notes": "recombinant human SCGB3A2, lot C1; also called hS2; source: recombinant; in house (APCBio Innovations), Cai et al., 2014"}},
  "molecular_target": "the molecule itself",
  "assay": "native gel or EMSA; human SCGB3A2 10 µg on 0.8% agarose gel in TAE, Coomassie Brilliant Blue staining of the gel",
  "data": [
    {"protein": "B1", "values": [
      {"measurement": "binding result", "result": "binds"}
    ]}
  ]
}
